Results published in paper PMC11629678, “Hypoxia favors tumor growth in colorectal cancer in an integrin αDβ1/hemoglobin δ-dependent manner” (Life Science Alliance, 2024).

Target: the molecule itself
Assay: SDS-polyacrylamide gel electrophoresis and blot; recombinant His-tagged Hbδ and Hbβ (HbAo) on a 4-20% SDS gel and blotted; non-reducing conditions in the legend, reducing conditions in the text

B1: recombinant Hbδ (natural protein)
chain: not shown
notes: hemoglobin subunit delta, recombinant, His-tagged (Origene); No catalogue number is printed; also called His-tagged recombinant Hbδ; source: bought: Origene
- binding result: binds
